Test: soluble on expression in E. coli; label from the status in PepcDB or PDB records

Row | Sequence | soluble on expression in E. coli
1 | MGSDKIHHHHHHMSYGYDKNADDIMKNADHIFEIKGIMRFPDRLKESIGDISIRSFAKKCGLSEGVMRNYLAGKTYPSLDKLALMAEVSNKPLDWLVAGTEHNFNELNEPGSKYVIGINLEEYALIPGYRVQVSAGHGALNCDQQDPVRYLAFRRKWLKYRGFEEHELAIVWAKGDSMEPTIHSNDTLVVHLGRNSPADGHIYIFRNGDDLFVKRYQNAFGSWRLISDNPVYDKLDIPKHEQHQFEVVGQVVHIAKDIGD | not soluble
2 | SHPDLNKLLELWPHIQEYQDLALKHGINDIFQDNGGKLLQVLLITGLTVLPGREGNDAVDNAGQEYELKSINIDLTKGFSTHHHMNPVIIAKYRQVPWIFAIYRGIAIEAIYRLEPKDLEFYYDKWERKWYSDGHKDINNPKIPVKYVMEHGTKIYGSGGSHPDLNKLLELWPHIQEYQDLALKHGINDIFQDNGGKLLQVLLITGLTVLPGREGNDAVDNAGQEYELKSINIDLTKGFSTHHHMNPVIIAKYRQVPWIFAIYRGIAIEAIYRLEPKDLEFYYDKWERKWYSDGHKDINNPKIPVKYVMEHGTKIYGSHHHHHH | soluble
3 | MTTANTPVRPKSAIDAVADAYTEKLIELNPSFATTLGLPGHETEYQDYSPAGAAAHAEATRLALEALAGLEPSDDVDAVTLDAMRERLGLELEIHQSGWDAADLNNIASPAQDIRAIFDLMPTDTVEHWEHIAGRAANVPGAIEGYIASLRAAKDDRKVAAARQIRIVIEQTGRYAAEDGFFAKMAADASLGDAPLPAEVQDKLDAGTSAARSAYSALGAFLRDELLPVAPEKDAVGRERYSLASRSFIGAEVDLEETYAWGVQELERLISEQEKVAGQIKPGASIEEAKSILNNDPARQIKGTDALKAWMQELSDRAVSELADVHFDIPDVMKTLECMIAPTDEGGIYYTGPSDDFSRPGRMWWSVPAGEDTFTTWSETTTVFHEGVPGHHLQVATATYRRELLNNWRRNVCWVSGHGEGWALYAEQLMLELGYLKDPGDHMGMLDGQRMRAARVVFDIGVHLELPVPERWGTGTWTPEKGFDFLKANLDISEGQLQFEFTRYLGWPGQAPSYKVGQRLWEQIRAELESREGFDLKSFHSKALNIGSVGLDVLRRALL | soluble
4 | MATPDVSVHMEEVVVVTTPDTAVDGSGVEGVKTVLVTTNLAPHGGDLTEDNMETENAAAAAAAAFTASSQLKEAVLVKMAEEGENLEAEIVYPITCGDSRANLIWRKFVCPGINVKCVQYDEHVISPKEFVHLAGKSTLKDWKRAIRMNGIMLRKIMDSGELDFYQHDKVCSNTCRSTKIDLSGARVSLSSPTSAEYIPLTPAAADVNGSPATITIETCEDPGDWTAAIGDDTFTFWRGLKDAGLLDEVIQEFHQELVETMRGLQQRVQDPPLQLRDAVLLNNIVQNFGMLDLVKKVLASHKCQMDRSREQYARDLAALEQQCDEHRRRAKELKHKSQHLSNVLMTLTPVSLPPPVKRPRLARATSGPAAMASQVLTQSAQLALGPGVPVPQLTSVPLGKVVSTLPSTVLGKGSLQAPPASSPASPLLGGYTVLASSGSTYPSTVEIHPDASSLTVLSTAAVQDGSTVFKVVSPLQLLTLPGLGPTLQNVAQASPGSSTIVTVPAGAAPGPEEHTATIEVAAMAEDHERK | not soluble
5 | MSEMSLIMLAAGNSTRFNTKVKKQFLRLGNDPLWLYATKNLSSFYPFKKIVVTSSNITYMKKFTKNYEFIEGGDTRAESLKKALELIDSEFVMVSDVARVLVSKNLFDRLIENLDKADCITPALKVADTTLFDNEALQREKIKLIQTPQISKTKLLKKALDQNLEFTDDSTAIAAMGGKIWFVEGEENARKLTFKEDLKKLDLPTPSFEIFTGNGFDVHEFGENRPLLLAGVQIHPTMGLKAHSDGDVLAHSLTDAILGAAGLGDIGELYPDTDMKFKNANSMELLKQAYDKVREIGFELINIDICVMAQSPKLKDFKQAMQSNIAHTLDLDEFRINVKATTTEKLGFIGRKEGMAVLSSVNLKYFDWTRL | soluble
6 | DGRRMVQGLLTASLLTSIGGDLEVLASRMDLQFQRPVYTGETLVCELTVVSADPHTDGGVALVGDVAVRRVNRDDNSGQADTAAP | not soluble
7 | MNQAFKALADPTRRKILDLLKEGDLTAGEIAEHFNMTKPSISHHLNALKNAELIQDEKKGQFVMYSLNTTVFQDLLTWVFTFTNKGEEGK | not soluble
8 | MGATGSSQLEKEISTTESVNNANEHYYGLVNALFFCRPFREKVLNYKQTLKKSGASKDNLVTCLADLFHSIASQKRRVGTIAPKRFITKLKKENELFDNYMQQDAHEFFNYLINTISETLIQEKIAEREKASRHGTLKKGNVTVNLAPATAGLPRSDEKGTSERNGGITVEGNEFLNKSDTTTWIHEIFQGILTNETRCLSCETVSSKDEDFLDLSIDVEQNTSISHCLRVFSETETLCGDQKYFCETCSSKQEAQKRMRIKKPPQLLALHLKRFKFVEPLNRHTKLSYRVVFPLELRLFNVSDDAEYGDRMYDLVATVVHCGATPNRGHYITLVKSNSFWLVFDDDIVEKLEVSSMEEFSGMSTDANIQMPPGNQSAPQKEFRICLYSVLSGKRLRC | not soluble
9 | MNESVDTDEATTPLVSAIIPTYGRNERLSSAIQSVLEQTYDNIELFVVDDASPTPVRETLDSFDPTVENSFRILRHDENQGANAARNTGIRASDGRYVAFLDDDDQWDETKITKQVQAFQESDSETGVVYTGVRKDGPEGTTVSTPVASGDVMKDLLTGTNFGQFSSVMVDTTVIETAGLPDERLPAWQDREWFFRLAQHTHFRPVRETLTYRQTGLPGSITKKYEQKRDVAYPMLISKHDWVAAEYGIYYERMFKATMRRSLARSAVRADRYKEARKYFLLSALANPLYWPVYPHLFASLGGKWSYESIASLRQQVTNGPASGT | not soluble
10 | MGVTLAKGGNVSLDKQAPNLTAVAVGLGWDARSTTGHEFDLDASALATGENKKVLSDQHFVFYNNLRSPDGSIQHEGDNLTGEGDGDDEVINVDLKAVPPNVTNIFFPVSIHEAELRGQNFGQVTNAFIRVVDRSTGNELVRYDLSEDASSETAMTFGELYRHNGEWKFRAIGQGYASGLSGIARDYGVNI | not soluble
11 | MKVNNTIVVSIGQAGNQIAASFWKTVCLEHGIDPLTGQTAPGVAPRGNWSSFFSKLGESSSGSYVPRAIMVDLEPSVIDNVKATSGSLFNPANLISRTEGAGGNFAVGYLGAGREVLPEVMSRLDYEIDKCDNVGGIIVLHAIGGGTGSGFGALLIESLKEKYGEIPVLSCAVLPSPQVSSVVTEPYNTVFALNTLRRSADACLIFDNEALFDLAHRKWNIESPTVDDLNLLITEALAGITASMRFSGFLTVEISLRELLTNLVPQPSLHFLMCAFAPLTPPDRSKFEELGIEEMIKSLFDNGSVFAACSPMEGRFLSTAVLYRGIMEDKPLADAALAAMREKLPLTYWIPTAFKIGYVEQPGISHRKSMVLLANNTEIARVLDRICHNFDKLWQRKAFANWYLNEGMSEEQINVLRASAQELVQSYQVAEESGAKAKVQDSAGDTGMRAAAAGVSDDARGSMSLRDLVDRRR | soluble
12 | MSLLEKDINLKIFKGNLIFTKTSDKFTIMKDSYIVVIDGKIASVSSNLPDKYKGNPIIDFRNNIIIPGMNDLHAHASQYKNLGIGMDKELLPWLNNYTFPEEAKFLNVDYAKKTYGRLIKDLIKNGTTRVALFATLHKDSTIELFNMLIKSGIGAYVGKVNMDYNCPDYLTENYITSLNDTEEIILKYKDKSNIVKPIITPRFVPSCSNELMDGLGKLSYKYRLPVQSHLSENLDEIAVVKSLHKKSNFYGEVYDKFGLFGNTPTLMAHCIHSSKEEINLIKRNNVTIVHCPTSNFNLGSGMMPVRKYLNLGINVVLGSDISAGHTCSLFKVIAYAIQNSKIKWQESGKKDMFLSTSEAFYMATKKGGSFFGKVGSFEEGYDFDALVINDSNLYPEDYDLTERLERFIYLGDDRNIMKRYVCGNEIFGPKFEGHHHHHH | soluble
13 | MLVAQHTVYFPDAFLTQMREAMPSTLSFDDFLAACQRPLRRSIRVNTLKTSVADFLRLTAPYGWTLTPIPWCEEGFWIERDDEDALPLGSTAEHLSGLFYIQEASSMLPVAALFADGNAPQRVMDVAAAPGSKTTQIAARMNNEGAILANEFSASRVKVLHANISRCGISNVALTHFDGRVFGAALPEMFDAILLDAPCSGEGVVRKDPDALKNWSPESNQEIAATQRELIDSAFHALRSGGTLVYSTCTLNREENESVCLWLKETYPDAVEFLPLGDLFPGANKALTEEGFLHVFPQIYDCEGFFVARLRKTQAIPALPTPKYKVGNFPFSPVKDREAAQIRQAAASVGLNWDGNLRLWQRDKEVWLFPVGIEALIGKVRFSRLGIKLAETHNKGYRWQHEAVIALASPDNENAFELTPQEAEEWYRGRDVYPQAAPVADDVLVTFQHQPIGLAKRIGSRLKNSYPRELVRDGKLFTSNA | soluble
14 | MGSDKIHHHHHHMQQSKEERVHDVFEKISDKYDVMNSVISFQRHKAWRKETMRIMDVKPGSKALDVCCGTADWTIALAEAVGEQGKVVGLDFSENMLSVGKQKVEALQLKQVELLHGNAMELPFEDNTFDYVTIGFGLRNVPDYMHVLKEMTRVVKPGGKVICLETSQPTMIGFRQGYILYFKYIMPLFGKLFAKSYKEYSWLQESASTFPGMKELANMFEKAGLERVQVKPFTFGVAAMHLGMKPESK | not soluble
15 | MGSDKIHHHHHHMVNIEIDEGSGFCFGVTTAIRKAEEELAKGNTLYCLGDIVHNGQECERLKKMGLITINHEEFAQLHDAKVLLRAHGEPPETYAIARTNNIEIIDATCPVVLRLQKRIKQEYDNVPASQDTQIVIYGKNGHAEVLGLVGQTHGKAIVIETPAEAAHLDFTKDIRLYSQTTKSLEEFWQIIEYIKEHISPDATFEYYDTICRQVANRMPNIRKFAAAHDLIFFVCGRKSSNGKILYQECKKINPNSYLIDQPEEIDRNLLEDVRSIGICGATSTPKWLMEECKKAILNEK | not soluble
16 | GLLAFFMVIAVSVGGLTQIVPLFFQDVTNKPVEGMKPRTALEVEGRDIYIREGCVGCHSQMIRPFRAETERYGHYSVAGESVWDHPFLWGSKRTGPDLARVGGRYSDDWHRAHLYNPRNVVPESKMPSYPWLVENKLDGKDTAKKMEVLRTLGTPYTDADIAGARDAVKGKTEMDAIVAYLQGLGT | not soluble
17 | MKIAFIGEAVSGFGGMETVISNVIHTFENSSPKINCEMFFFCRNDKMDKAWLKEIKYAQSFSNIKLSFLRRAKHVYNFSQWLKETSPDIVICIDVISCLYANKARKKSGKHFTIFSWPHFSLDHKKHAECITYADYHLAISSGIKEQIMARGISAQDISVVYNPVSIKTVIVPPPERDKPAVFLYVGRLKFEGQKRVKDLFDGLARTTGEWQLHIIGDGSDFEKCQAYSRELGIEQRVIWYGWQSAPWQVVQQKIKNVTALLLTSAFEGFPMTLLEAMSYGIPCISSDCMSGPRDMIKPGLNGELYTPGAIDDFVGHLNRVISGEVKYQHDIIPGTIERFYDVLYFKNFNNAIFSKLQK | not soluble
18 | LQNKFKKYSKIPTGNGMTGRDVAIKMLQDNGIYDVQVTHTPGQLTDHYNPANKTVNLSEGVYDSNSIMAAAVAAHECGHAVQHARAYAPLTLRSK | not soluble
19 | LRLWALTATECRLLLSTRWNVGRLYQLPVAASAEFASYQTQRDQLRQTFKNIASEILNPDDPRTDLPFHIALSVIEMRSNDGVVPEPLRDDE | not soluble
20 | MSLDEKLRTSGVQVIGDIAWGTHFCQFYRTQEELVNVVCPYLKAGLEGNELCIWALPRDFETKKEAEGPLRRTIPKLDIYLEKGQMEIISYKDRYAEKEIPDSKKALENLIKKADYALLNGYSGLRLVQDTSWLKNDWKNLTGYEEELDIAIENRRITALCTYSSGKFDTDETIYAALSHRFVLVKKEGNWEKVENPRLKKAEERVIQPSEEVETKTEEENENLKKLLEERTVELTEAYKSLKVNEKQFLQIRKMTHIGNWKWDILTGELHWSDEVYRIFGRDPERFKATCDAFLGSVHPDDREYLINSIKKDFDEQIRNIDYRIVLPDGEERTVRTRVEITFDEEGHHHHHH | not soluble

— the DeepSol protein solubility set
